# B1: AMOTL2 peptide 66-81 (Angiomotin-like protein 2), 16-mer library wild type / TNKS ANK (TNKS 12 ANK repeats, residues 174-649) (parent complex)
# chain 1: LQQATRQEPQGQEHQG
# chain 2: TGVPAVSGALRELLEACRNGDVSRVKRLVDAANVNAKDMAGRKSSPLHFAAGFGRKDVVEHLLQMGANVHARDDGGLIPLHNACSFGHAEVVSLLLCQGADPNARDNWNYTPLHEAAIKGKIDVCIVLLQHGADPNIRNTDGKSALDLADPSAKAVLTGEYKKDELLEAARSGNEEKLMALLTPLNVNCHASDGRKSTPLHLAAGYNRVRIVQLLLQHGADVHAKDKGGLVPLHNACSYGHYEVTELLLKHGACVNAMDLWQFTPLHEAASKNRVEVCSLLLSHGADPTLVNCHGKSAVDMAPTPELRERLTYEFKGHSLLQAAREADLAKVKKTLALEIINFKQPQSHETALHCAVASLHPKRKQVTELLLRKGANVNEKNKDFMTPLHVAAERAHNDVMEVLHKHGAKMNALDTLGQTALHRAALAGHLQTCRLLLSYGSDPSIISLQGFTAAQMGNEAVQQILSESTPIRTSD
# B2: AMOTL2 peptide 64-79 (Angiomotin-like protein 2), 16-mer library wild type / TNKS ANK (TNKS 12 ANK repeats, residues 174-649) (parent complex)
# chain 1: QVLQQATRQEPQGQEH
# chain 2: B1 chain 2
# Variants of: B1
# Assay: proteomic peptide phage display deep mutational scan (ProP-PD DMS): M13 P8 16-mer library selected against immobilised GST-tagged bait for four days (rounds), NGS of the eluted pools per day and pseudo-replica; bait immobilised on MaxiSorp plates (10 µg), library pre-cleared on GST, 2 h binding at 4 °C, five washes; one round per day, days 1-4; value from days 2 and 3
row,Variant,screen value
1,chain 1 LQQTTRQEPQGQEHQG,"0.000212 average fractional NGS count over selection days 2 and 3 (reads of this peptide / all reads for the bait, averaged over …"
2,chain 1 LQTATRQEPQGQEHQG,"0.000102 average fractional NGS count over selection days 2 and 3 (reads of this peptide / all reads for the bait, averaged over …"
3,chain 1 LQQATRQEPLGQEHQG,"0.00347 average fractional NGS count over selection days 2 and 3 (reads of this peptide / all reads for the bait, averaged over …"
4,chain 1 LQQVTRQEPQGQEHQG,"0.000321 average fractional NGS count over selection days 2 and 3 (reads of this peptide / all reads for the bait, averaged over …"

# Variants of: B2
# Assay: as above
row,Variant,screen value
1,chain 1 QVLQQATRQEPQGEEH,"0.000547 average fractional NGS count over selection days 2 and 3 (reads of this peptide / all reads for the bait, averaged over …"
2,chain 1 QGLQQATRQEPQGQEH,"0.000586 average fractional NGS count over selection days 2 and 3 (reads of this peptide / all reads for the bait, averaged over …"
3,chain 1 QVLQQATRQEPQGQED,"0.000297 average fractional NGS count over selection days 2 and 3 (reads of this peptide / all reads for the bait, averaged over …"
4,chain 1 QFLQQATRQEPQGQEH,"0.000314 average fractional NGS count over selection days 2 and 3 (reads of this peptide / all reads for the bait, averaged over …"
5,chain 1 QQLQQATRQEPQGQEH,"0.000414 average fractional NGS count over selection days 2 and 3 (reads of this peptide / all reads for the bait, averaged over …"
6,chain 1 QVLQQAWRQEPQGQEH,"0.00146 average fractional NGS count over selection days 2 and 3 (reads of this peptide / all reads for the bait, averaged over …"
7,chain 1 QVLQQATRQEPQGQTH,"0.00184 average fractional NGS count over selection days 2 and 3 (reads of this peptide / all reads for the bait, averaged over …"
8,chain 1 QYLQQATRQEPQGQEH,"0.000153 average fractional NGS count over selection days 2 and 3 (reads of this peptide / all reads for the bait, averaged over …"
9,chain 1 QPLQQATRQEPQGQEH,"0.000487 average fractional NGS count over selection days 2 and 3 (reads of this peptide / all reads for the bait, averaged over …"
10,chain 1 QLLQQATRQEPQGQEH,"0.0017 average fractional NGS count over selection days 2 and 3 (reads of this peptide / all reads for the bait, averaged over …"
11,chain 1 QVLQQATRQEPTGQEH,"0.0005 average fractional NGS count over selection days 2 and 3 (reads of this peptide / all reads for the bait, averaged over …"
12,chain 1 QVFQQATRQEPQGQEH,"0.00165 average fractional NGS count over selection days 2 and 3 (reads of this peptide / all reads for the bait, averaged over …"
13,chain 1 QVLQQATRQEPEGQEH,"0.000439 average fractional NGS count over selection days 2 and 3 (reads of this peptide / all reads for the bait, averaged over …"
14,chain 1 QVLQQAHRQEPQGQEH,"0.00103 average fractional NGS count over selection days 2 and 3 (reads of this peptide / all reads for the bait, averaged over …"
15,chain 1 QVLQQATRQEPQGQQH,"0.000335 average fractional NGS count over selection days 2 and 3 (reads of this peptide / all reads for the bait, averaged over …"
16,chain 1 QVLQQHTRQEPQGQEH,"0.00168 average fractional NGS count over selection days 2 and 3 (reads of this peptide / all reads for the bait, averaged over …"
17,chain 1 QNLQQATRQEPQGQEH,"0.00035 average fractional NGS count over selection days 2 and 3 (reads of this peptide / all reads for the bait, averaged over …"
18,chain 1 QVLQQATRQEPQGQAH,"0.000599 average fractional NGS count over selection days 2 and 3 (reads of this peptide / all reads for the bait, averaged over …"
19,chain 1 QVLQQATRQEPQGDEH,"0.00025 average fractional NGS count over selection days 2 and 3 (reads of this peptide / all reads for the bait, averaged over …"
20,chain 1 QVLQQAGRQEPQGQEH,"0.00299 average fractional NGS count over selection days 2 and 3 (reads of this peptide / all reads for the bait, averaged over …"
21,chain 1 QVLQQWTRQEPQGQEH,"0.000677 average fractional NGS count over selection days 2 and 3 (reads of this peptide / all reads for the bait, averaged over …"
22,chain 1 QVLQQATAQEPQGQEH,"0.000176 average fractional NGS count over selection days 2 and 3 (reads of this peptide / all reads for the bait, averaged over …"
23,chain 1 QVLLQATRQEPQGQEH,"0.000267 average fractional NGS count over selection days 2 and 3 (reads of this peptide / all reads for the bait, averaged over …"
24,chain 1 QVLQQATRQEPGGQEH,"0.000392 average fractional NGS count over selection days 2 and 3 (reads of this peptide / all reads for the bait, averaged over …"
25,chain 1 QVLQQAERQEPQGQEH,"0.000563 average fractional NGS count over selection days 2 and 3 (reads of this peptide / all reads for the bait, averaged over …"
26,chain 1 QVLQQATRQEPQGQEW,"0.000565 average fractional NGS count over selection days 2 and 3 (reads of this peptide / all reads for the bait, averaged over …"

row,Variant,screen value
1,chain 1 QVLQQATRQEPIGQEH,"0.00433 average fractional NGS count over selection days 2 and 3 (reads of this peptide / all reads for the bait, averaged over …"
2,chain 1 QVIQQATRQEPQGQEH,"0.00105 average fractional NGS count over selection days 2 and 3 (reads of this peptide / all reads for the bait, averaged over …"
3,chain 1 QVPQQATRQEPQGQEH,"0.000422 average fractional NGS count over selection days 2 and 3 (reads of this peptide / all reads for the bait, averaged over …"
4,chain 1 QVLQQATRQEPQGNEH,"0.00223 average fractional NGS count over selection days 2 and 3 (reads of this peptide / all reads for the bait, averaged over …"
5,chain 1 QVLQQATRQEPQGQLH,"0.00245 average fractional NGS count over selection days 2 and 3 (reads of this peptide / all reads for the bait, averaged over …"
6,chain 1 QVLQEATRQEPQGQEH,"0.000474 average fractional NGS count over selection days 2 and 3 (reads of this peptide / all reads for the bait, averaged over …"
7,chain 1 QHLQQATRQEPQGQEH,"0.00146 average fractional NGS count over selection days 2 and 3 (reads of this peptide / all reads for the bait, averaged over …"
8,chain 1 QVLQKATRQEPQGQEH,"0.000455 average fractional NGS count over selection days 2 and 3 (reads of this peptide / all reads for the bait, averaged over …"
9,chain 1 QVLQQATRQEPQGQMH,"0.000421 average fractional NGS count over selection days 2 and 3 (reads of this peptide / all reads for the bait, averaged over …"
10,chain 1 QVLQQATRQEPQGQRH,"0.00165 average fractional NGS count over selection days 2 and 3 (reads of this peptide / all reads for the bait, averaged over …"
11,chain 1 QVLQQATRQEPSGQEH,"0.000155 average fractional NGS count over selection days 2 and 3 (reads of this peptide / all reads for the bait, averaged over …"
12,chain 1 QVLQQATRQMPQGQEH,"0.00083 average fractional NGS count over selection days 2 and 3 (reads of this peptide / all reads for the bait, averaged over …"
13,chain 1 QVLQQATRQEPQGQES,"0.000142 average fractional NGS count over selection days 2 and 3 (reads of this peptide / all reads for the bait, averaged over …"
14,chain 1 QVLQQATRQEPQGQEL,"0.000215 average fractional NGS count over selection days 2 and 3 (reads of this peptide / all reads for the bait, averaged over …"
15,chain 1 QVLQQATRQEPQGSEH,"0.00613 average fractional NGS count over selection days 2 and 3 (reads of this peptide / all reads for the bait, averaged over …"
16,chain 1 QVLNQATRQEPQGQEH,"0.00124 average fractional NGS count over selection days 2 and 3 (reads of this peptide / all reads for the bait, averaged over …"
17,chain 1 QVLKQATRQEPQGQEH,"0.000138 average fractional NGS count over selection days 2 and 3 (reads of this peptide / all reads for the bait, averaged over …"
18,chain 1 QVLQQATRQHPQGQEH,"0.000153 average fractional NGS count over selection days 2 and 3 (reads of this peptide / all reads for the bait, averaged over …"
19,chain 1 QVLQQATRAEPQGQEH,"0.00163 average fractional NGS count over selection days 2 and 3 (reads of this peptide / all reads for the bait, averaged over …"
20,chain 1 QVLQQATRQEPQRQEH,"0.000155 average fractional NGS count over selection days 2 and 3 (reads of this peptide / all reads for the bait, averaged over …"
21,chain 1 QVDQQATRQEPQGQEH,"0.000181 average fractional NGS count over selection days 2 and 3 (reads of this peptide / all reads for the bait, averaged over …"
22,chain 1 QVLQQATRWEPQGQEH,"0.000813 average fractional NGS count over selection days 2 and 3 (reads of this peptide / all reads for the bait, averaged over …"
23,chain 1 QVLQVATRQEPQGQEH,"0.00207 average fractional NGS count over selection days 2 and 3 (reads of this peptide / all reads for the bait, averaged over …"
24,chain 1 QVLQQATRQEPQGWEH,"0.00254 average fractional NGS count over selection days 2 and 3 (reads of this peptide / all reads for the bait, averaged over …"
25,chain 1 QVLQQAYRQEPQGQEH,"0.00199 average fractional NGS count over selection days 2 and 3 (reads of this peptide / all reads for the bait, averaged over …"
26,chain 1 QVLQQATRQEPDGQEH,"0.000551 average fractional NGS count over selection days 2 and 3 (reads of this peptide / all reads for the bait, averaged over …"

# — PMC12102759 (2025)
